Measurements reported in US20250250328A1.

How the values were obtained:
Assay in all cases: cell-based or functional assay
[1] = biological target: HIV-1 envelope 42368 (HIV-1)
[2] = biological target: HIV-1 envelope X2088.C9 (HIV-1)
[3] = biological target: HIV-1 envelope 3637_V5_C3 (HIV-1)
[4] = biological target: HIV-1 envelope 3468_V1_C12 (HIV-1)
[5] = biological target: HIV-1 envelope ZM106.9 (HIV-1)
[6] = biological target: HIV-1 envelope 3326_V4_C3 (HIV-1)
[7] = biological target: HIV-1 envelope Q461_E2 (HIV-1)
[8] = biological target: HIV-2 envelope HIV-2-ATM88 (HIV-2)
[9] = biological target: HIV-1 envelope NL4-3 (HIV-1)
[10] = biological target: HIV-1 envelope CC1/85 (HIV-1)
[11] = biological target: HIV-1 envelope T278.50 (HIV-1)
[12] = biological target: HIV-1 envelope of laboratory strain NL4-3 (HIV-1)
[13] = biological target: HIV-1 envelope CAP45.2.00.G3 (HIV-1)
[14] = biological target: HIV-2 envelope HIV-2-HCC-01 (HIV-2)
[15] = biological target: a different panel of HIV-1 envelopes from bNAb1-resistant strains
[16] = biological target: HIV-1 envelope JR-CSF (HIV-1)
[17] = biological target: HIV-1 envelope 398F1 (HIV-1)
[18] = biological target: HIV-1 envelope X1632_S2_B10 (HIV-1)
[19] = biological target: HIV-1 envelope CNE8 (HIV-1)
[20] = biological target: HIV-1 envelope 25710 (HIV-1)
[21] = biological target: HIV-1 envelope JRFL (HIV-1)
[22] = biological target: HIV-1 envelope BJOX2000 (HIV-1)
[23] = biological target: HIV-1 envelope CNE55 (HIV-1)
[24] = biological target: HIV-1 envelope TRO11 (HIV-1)
[25] = biological target: HIV-1 envelope CE0217 (HIV-1)
[26] = biological target: HIV-1 envelope CE1176 (HIV-1)
[27] = biological target: HIV-1 envelope X2278 (HIV-1)
[28] = biological target: HIV-1 envelope 246F3 (HIV-1)
[29] = biological target: HIV-1 envelope CH119 (HIV-1)

B1: bNAb18 (antibody, V domains shown)
VH: QVQLVQSGAEVRKPGSSVTISCKPVGGTFTNFAIHWVRQAPGQGLEWVGGRVPVVGIYKYGKKFHDRLRLYEDDPMKTVFLELRSLTSDDTGVYYCTRWRGCGMCPYDTSSYYNDASDVWGPGTKVIVSA
VL: EIVLTQSPVTLSLSSGETGTLSCRASQNISSSWIAWYQQRRGQVPRLLISAASARAAGIPDRFTGRGSGTDFTLTITRLEPEDFGVYSCQYYGGSFFTFGPGTQVDVKR
- IC50, PSV assay [1]: > 500 nM
- IC50, PSV assay [2]: 0.2 nM
- IC50, PSV assay [3]: > 500 nM
- IC50, PSV assay [4]: > 500 nM
- IC50, PSV assay [5]: 0.11 nM
- IC50, PSV assay [6]: > 500 nM
- IC50, PSV assay [7]: > 500 nM

B2: bNAb1 (antibody, V domains shown)
VH: QPQLQESGPTLVEASETLSLTCAVSGDSTAACNSFWGWVRQPPGKGLEWVGSLSHCASYWNRGWTYHNPSLKSRLTLALDTPKNLVFLKLNSVTAADTATYYCARFGGEVLRYTDWPKPAWVDLWGRGTLVTVSS
VL: QSALTQPPSASGSPGQSITISCTGTSNNFVSWYQQHAGKAPKLVIYDVNKRPSGVPDRFSGSKSGNTASLTVSGLQTDDEAVYYCGSLVGNWDVIFGGGTKLTVLG
- IC50 (nM), PSV assay (ACTOne cells) [1]: > 500 nM
- IC50 (nM), PSV assay (ACTOne cells) [2]: 402 nM
- IC50, PSV assay [8]: > 500 nM
- IC50 (nM), PSV assay (ACTOne cells) [9]: 131 nM
- IC50 (nM), PSV assay (ACTOne cells) [10]: 0.03 nM
- IC50 (nM), PSV assay (ACTOne cells) [11]: 0.17 nM
- EC50 (replicating virus assay) [12]: > 500 nM
- IC50 (nM), PSV assay (ACTOne cells) [5]: 0.07 nM
- IC50 (nM), PSV assay (ACTOne cells) [13]: > 500 nM
- IC50, PSV assay [14]: > 500 nM
- geometric mean IC50, PSV assay (ACTOne), FIG. 4B [15]: > 10 nM

B3: bNAb5 (antibody, V domains shown)
VH: QLQMQESGPGLVKPSETLSLSCTVSGDSIRGGEWGDKDYHWGWVRHSAGKGLEWIGSIHWRGTTHYKESLRRRVSMSIDTSRNWFSLRLASVTAADTAVYFCARHRHHDVFMLVPIAGWFDVWGPGVQVTVSS
VL: EIVMTQSPDTLSVSPGETVTLSCRASQNINKNLAWYQYKPGQSPRLVIFETYSKIAAFPARFVASGSGTEFTLTINNMQSEDVAVYYCQQYEEWPRTFGQGTKVDIKR
- IC50 (nM), PSV assay [1]: > 500 nM
- IC50 (nM), PSV assay [16]: 0.64 nM
- IC50 (nM), PSV assay [2]: 0.17 nM
- IC50 (nM), PSV assay [9]: 2.62 nM
- IC50 (nM), PSV assay [17]: 1.83 nM
- IC50 (nM), PSV assay [18]: > 500 nM
- IC50 (nM), PSV assay [19]: 51.4 nM
- IC50 (nM), PSV assay [10]: > 500 nM
- IC50 (nM), PSV assay [11]: 96.1 nM
- IC50 (nM), PSV assay [20]: 8.1 nM
- IC50 (nM), PSV assay [21]: 58.2 nM
- IC50 (nM), PSV assay [22]: 127 nM
- IC50 (nM), PSV assay [5]: 2.04 nM
- IC50 (nM), PSV assay [23]: 3300 nM
- IC50 (nM), PSV assay [24]: 0.39 nM
- IC50 (nM), PSV assay [25]: 410 nM
- IC50 (nM), PSV assay [13]: > 500 nM
- IC50 (nM), PSV assay [26]: 57.1 nM
- IC50 (nM), PSV assay [27]: 9.53 nM
- IC50 (nM), PSV assay [28]: 40.9 nM
- IC50 (nM), PSV assay [29]: 63.5 nM

B4: bNAb19 (antibody, V domains shown)
VH: EVQLVESGGGLVKAGGSLILSCGVSNFRISAHTMNWVRRVPGGGLEWVASISTSSTYRDYADAVKGRFTVSRDDLEDFVYLQMHKMRVEDTAIYYCARKGSDRLSDNDPFDAWGPGTVVTVSP
VL: DVVMTQSPSTLSASVGDTITITCRASQSIETWLAWYQQKPGKAPKLLIYKASTLKTGVPSRFSGSGSGTEFTLTISGLQFDDFATYHCQHYAGYSATFGQGTRVEIKR
- IC50, PSV assay [1]: > 300 nM
- IC50, PSV assay [2]: > 300 nM
- IC50, PSV assay [3]: > 300 nM
- IC50, PSV assay [4]: > 300 nM
- IC50, PSV assay [5]: > 300 nM
- IC50, PSV assay [6]: > 300 nM
- IC50, PSV assay [7]: > 300 nM

B5: bNAb3 (antibody, V domains shown)
VH: QVQLRESGPGLVKPSETLSLSCTVSNDSRPSDHSWTWVRQSPGKALEWIGDIHYNGATTYNPSLRSRVRIELDQSIPRFSLKMTSMTAADTGMYYCARNAIRIYGVVALGEWFHYGMDVWGQGTAVTVSS
VL: SSELTQPPSVSVSPGQTARITCSGAPLTSRFTYWYRQKPGQAPVLIISRSSQRSSGWSGRFSASWSGTTVTLTIRGVQADDEADYYCQSSDTSDSYKMFGGGTKLTVLG
- IC50 (nM), PSV assay (ACTOne cells) [1]: > 500 nM
- IC50 (nM), PSV assay (ACTOne cells) [2]: 0.03 nM
- IC50 (nM), PSV assay (ACTOne cells) [9]: 0.15 nM
- IC50 (nM), PSV assay (ACTOne cells) [10]: 38.3 nM
- IC50 (nM), PSV assay (ACTOne cells) [11]: 0.01 nM
- IC50 (nM), PSV assay (ACTOne cells) [5]: 0.03 nM
- IC50 (nM), PSV assay (ACTOne cells) [13]: > 500 nM

B6: bNAb23 (antibody, V domains shown)
VH: QVQLLESGPGLVRPSETLTLTCSVFNSRVSGYYYSWIRQPPGRGLEWIASTHFSLRPSRNPSLLSRVTTSIDTERYQVFLNMRSVTAADTAVYFCARGDASGWRADYFPHWGQGTLVVVSS
VL: QSVLTQPPSASGSPGQSVTISCTGTSSDIGASDYVSWYQQYPGEAPKVIIYDVTKRPSGVPDRFSGSKSGTTASLTVSGLQAEDEADYYCSSDAGRHTLLFGGGTKVTVLG
- IC50, PSV assay [1]: > 500 nM
- IC50, PSV assay [2]: > 500 nM
- IC50, PSV assay [3]: > 500 nM
- IC50, PSV assay [4]: > 500 nM
- IC50, PSV assay [5]: 17.4 nM
- IC50, PSV assay [6]: 15.3 nM
- IC50, PSV assay [7]: > 500 nM

B7: bNAb14 (antibody, V domains shown)
VH: QLQLQESGPGLVKPSETLSLTCTVSGGSMRGTDWGENDFHYGWIRQSSAKGLEWIGSIHWRGRTTHYKTSFRSRATLSIDTSNNRFSLTFSFVTAADTAVYYCARHKYHDIFRVVPVAGWFDPWGQGLLVTVSS
VL: EIVMTQSPPTLSVSPGETATLSCRASQNVKNNLAWYQLKPGQAPRLLIFDASSRAGGIPDRFSGSGYGTDFTLTVNSVQSEDFGDYFCQQYEEWPRTFGQGTKVDIKR
- IC50, PSV assay [1]: > 500 nM
- IC50, PSV assay [2]: 2.79 nM
- IC50, PSV assay [3]: > 500 nM
- IC50, PSV assay [4]: > 500 nM
- IC50, PSV assay [5]: 1.26 nM
- IC50, PSV assay [6]: > 500 nM
- IC50, PSV assay [7]: > 500 nM

B8: bNAb16 (antibody, V domains shown)
VH: EVQLVESGGGLVKPGGSLRLTCVASGFTFSDVWLNWVRQAPGKGLEWVGRIKSRTDGGTTDYAASVKGRFTISRDDSKNTLYLQMNSLKTEDTAVYSCTTDGFIMIRGVSEDYYYYYMDVWGKGTTVTVSS
VL: QSVLTQPPSVSAAPGQKVTISCSGSSSNIGNNYVLWYQQFPGTAPKLLIYGNNKRPSGIPDRFSGSKSGTSATLGITGLQTGDEADYFCATWDSGLSADWVFGGGTKLTVLG
- IC50, PSV assay [1]: > 500 nM
- IC50, PSV assay [2]: 289 nM
- IC50, PSV assay [3]: > 500 nM
- IC50, PSV assay [4]: > 500 nM
- IC50, PSV assay [5]: > 500 nM
- IC50, PSV assay [6]: > 500 nM
- IC50, PSV assay [7]: > 500 nM

B9: bNAb15 (antibody, V domains shown)
VH: EVHLEESGPGLVRPSETLSLTCTASGGSIRGGEWGDSDYHWGWVRHSPEKGLEWIGSIHWRGTTHYNAPFRGRGRLSIDLSRNQFSLRLTSVTAEDTAVYYCVKHKYHDIVMVVPIAGWFDPWGQGLQVTVSS
VL: EIMMTQSPAILSVSPGDRATLSCRASQSVKNNLAWYQKRPGQAPRLLIFDTSSRASGIPARFSGGGSGTEFTLTVNSMQSEDFATYYCQQYEEWPRTFGQGTKVEIKR
- IC50, PSV assay [1]: > 500 nM
- IC50, PSV assay [2]: 2.58 nM
- IC50, PSV assay [3]: 5 nM
- IC50, PSV assay [4]: > 500 nM
- IC50, PSV assay [5]: 1.34 nM
- IC50, PSV assay [6]: > 500 nM
- IC50, PSV assay [7]: > 500 nM
